Source: the Immune Epitope Database (IEDB)

What was measured:
[1] = target: HLA-A*02:02; test: IEDB peptide-MHC binding, purified MHC/competitive/radioactivity; filed as Kd, often an IC50 or EC50 that approximates it; ≥ and ≤ were set here for values at or beyond the usual limits of such assays
[2] = target: HLA-A*02:03; test: as above
[3] = target: HLA-A*02:06; test: as above
[4] = target: HLA-A*02:01; test: IEDB peptide-MHC binding, purified MHC/competitive/fluorescence; filed as Kd, often an IC50 or EC50 that approximates it; ≥ and ≤ were set here for values at or beyond the usual limits of such assays; details: source organism: Vaccinia virus WR
[5] = target: HLA-A*30:02; test: IEDB peptide-MHC binding, purified MHC/competitive/radioactivity; filed as Kd, often an IC50 or EC50 that approximates it; ≥ and ≤ were set here for values at or beyond the usual limits of such assays
[6] = target: HLA-B*35:01; test: as above
[7] = target: HLA-B*53:01; test: as above
[8] = target: HLA-A*24:02; test: IEDB peptide-MHC binding, purified MHC/competitive/fluorescence; ≥ and ≤ were set here for values at or beyond the usual limits of such assays
[9] = target: HLA-A*26:01; test: IEDB peptide-MHC binding, purified MHC/competitive/fluorescence; filed as Kd, often an IC50 or EC50 that approximates it; ≥ and ≤ were set here for values at or beyond the usual limits of such assays
[10] = target: HLA-A*02:01; test: IEDB peptide-MHC binding, purified MHC/competitive/fluorescence; ≥ and ≤ were set here for values at or beyond the usual limits of such assays
[11] = target: HLA-B*51:01; test: IEDB peptide-MHC binding, purified MHC/competitive/radioactivity; filed as Kd, often an IC50 or EC50 that approximates it; ≥ and ≤ were set here for values at or beyond the usual limits of such assays
[12] = target: HLA-B*15:01; test: IEDB peptide-MHC binding, purified MHC/direct/fluorescence; filed as Kd, often an IC50 or EC50 that approximates it; ≥ and ≤ were set here for values at or beyond the usual limits of such assays; details: source organism: Haemophilus influenzae
[13] = target: HLA-B*58:01; test: as above; details: source organism: Haemophilus influenzae
[14] = source organism: Vaccinia virus WR
[15] = source organism: Dengue virus 3 Martinique/1243/1999
[16] = source organism: Dengue virus 2 Jamaica/1409/1983
[17] = source organism: SARS coronavirus Tor2
[18] = source organism: Dengue virus 4 Philippines/H241/1956
[19] = source organism: Zaire ebolavirus
[20] = source organism: Dengue virus 1 Singapore/S275/1990
[21] = source organism: Mammarenavirus machupoense

Row | Sequence | Kd [1, 14] [nM] | Kd [2, 14] [nM] | Kd [3, 14] [nM] | other results
1 | SIMSMMNIT | 4970 | 681 | 1760 | –
2 | YLYQPCDLL | – | – | – | Kd [4]: 0.2 nM
3 | DQNYVCKHTY | – | – | – | Kd [5, 15]: 8020 nM
4 | GMQFDKVYL | 13.4 | 277 | 1910 | –
5 | IPITAAAWY | – | – | – | Kd [5, 16]: 2.47 nM; Kd [6, 16]: 6.19 nM; Kd [7, 16]: 26.6 nM
6 | LITLILSNKL | 225 | 293 | 633 | –
7 | RRWGGTCRI | – | – | – | IC50 ([8]; source organism: Sudan ebolavirus): 708 nM
8 | NLAPHLLLIV | – | – | – | Kd [1, 17]: 5.1 nM; Kd [2, 17]: 1.07 nM; Kd [3, 17]: 125 nM
9 | YISRDELWA | 333 | 242 | 1200 | –
10 | EPETPNMDVI | – | – | – | Kd [7, 15]: 10800 nM
11 | DTCLLAISAV | 2460 | 93.1 | 106 | –
12 | FTNSQIFNI | 6.89 | 7.11 | 4.79 | –
13 | TVLTSVDIET | 1720 | 915 | 961 | –
14 | FAGPVSQHNY | – | – | – | Kd [5, 16]: 11.6 nM; Kd [6, 16]: 38.4 nM; Kd [7, 16]: 435 nM
15 | NTIAVITETI | 50.2 | 56.3 | 784 | –
16 | MPTVIEELEK | – | – | – | Kd [6, 18]: 2620 nM; Kd [7, 18]: 5380 nM
17 | LLLEWLAEV | – | – | – | Kd [1, 17]: 0.114 nM; Kd [2, 17]: 0.627 nM; Kd [3, 17]: 0.105 nM
18 | TTRGETLFY | – | – | – | Kd ([9]; source organism: Yersinia pestis Nepal516): 34.1 nM
19 | NETEYLFEV | – | – | – | IC50 [10, 19]: 43600 nM
20 | TPKGAVMDI | – | – | – | Kd [11, 18]: 4220 nM
21 | LIFNVKSKLL | 2390 | 6690 | ≥ 28500 | –
22 | ITYGACPRY | – | – | – | Kd ([9]; source organism: Influenza A virus (A/Sichuan/2/1987(H3N2))): 34.3 nM
23 | LMSFTILCL | – | – | – | Kd [1, 17]: 0.269 nM; Kd [2, 17]: 16.3 nM; Kd [3, 17]: 1.84 nM
24 | GRVNPGTYV | – | – | – | IC50 ([8]; source organism: Variola virus): 74.3 nM
25 | LLPLTSLVIT | 999 | 1320 | 1610 | –
26 | ETKRNIARHL | ≥ 50000 | 12400 | ≥ 69800 | –
27 | RSLETDLRS | – | – | – | IC50 ([10]; source organism: Vaccinia virus): ≥ 158000 nM
28 | NNLEEICQL | – | – | – | IC50 [10, 19]: ≥ 225000 nM

Row | Sequence | Kd [1, 14] [nM] | Kd [2, 14] [nM] | Kd [3, 14] [nM] | other results
29 | TPQDNQLAY | – | – | – | Kd ([6]; source organism: Dengue virus 1 Brazil/97-11/1997): 10.3 nM
30 | LPLPWLPGAD | – | – | – | Kd [6, 16]: 2490 nM; Kd [11, 16]: ≥ 32600 nM
31 | AKAIITPIV | – | – | – | IC50 ([10]; source organism: Vaccinia virus Copenhagen): ≥ 147000 nM
32 | FLAHLQWFA | – | – | – | Kd [1, 17]: 0.104 nM; Kd [2, 17]: 0.207 nM; Kd [3, 17]: 0.574 nM
33 | ALIARCWYL | – | – | – | Kd [1, 17]: 0.196 nM; Kd [2, 17]: 17.1 nM; Kd [3, 17]: 0.982 nM
34 | ELAAHQKKI | – | – | – | Kd ([2]; source organism: Homo sapiens): 2650 nM
35 | DSFLLMLCL | – | – | – | IC50 [8, 19]: ≥ 313000 nM
36 | ILPDKIDGL | 1.04 | 3.45 | 43.1 | –
37 | MAFILGIII | 9530 | 9760 | ≥ 32500 | –
38 | SLVITYCLVT | 286 | 566 | 824 | –
39 | VPPLPLFIF | – | – | – | Kd [11, 15]: 3580 nM
40 | IAGLKIEEI | 7660 | 6090 | 1970 | –
41 | CPDDQRAWNI | – | – | – | Kd [11, 20]: 18000 nM; Kd [7, 20]: 120 nM
42 | GLCNYGGIL | 97.7 | 125 | 1360 | –
43 | DIMTSTRTI | 3450 | 78.6 | ≥ 21800 | –
44 | STAEQLSKYV | 1060 | 1870 | 697 | –
45 | YGTLIIDEV | – | – | – | IC50 ([10]; source organism: Variola virus): 3320 nM
46 | RLEELLPAV | – | – | – | IC50 [10, 19]: 1850 nM
47 | YALEPRKEI | 3700 | 7070 | 4110 | –
48 | RVILAGPMPV | – | – | – | Kd [2, 16]: 7.76 nM; Kd [3, 16]: 31.9 nM
49 | SIGKMLESTY | – | – | – | Kd [5, 18]: 1560 nM
50 | SWHYDQDHPY | – | – | – | Kd [5, 16]: ≥ 69700 nM
51 | NTLISSDGA | 7410 | 3570 | ≥ 49400 | –
52 | ALTDVEKRI | 74.2 | 1490 | 14400 | –
53 | SQKHFDTWW | – | – | – | Kd [12]: 473 nM; Kd [13]: 3040 nM
54 | LPIRYQTPAI | – | – | – | Kd [6, 16]: 51.9 nM; Kd [11, 16]: 69.1 nM; Kd [7, 16]: 13.5 nM
55 | SSWAVHWFS | – | – | – | Kd [1, 21]: 4640 nM; Kd [2, 21]: ≥ 78100 nM; Kd [3, 21]: ≥ 46800 nM
